In patent US20220177594A1:
Substitutions are numbered along the chain they refer to. Each block holds one binder with its values, some of them ahead of it.

Experiments:
[1] = biological target: Feline_OSMR_hlgG1_Fc (feline); assay: SPR Biacore
[2] = biological target: Feline_OSMR_hlgG1_Fc (feline); assay: indirect ELISA, fOSMR coated; OD ratio to antibody expression control
[3] = biological target: Canine_OSMR_hlgG1_Fc (canine); assay: SPR Biacore
Chain of Canine_OSMR_hlgG1_Fc (canine) (chain, as listed by the source limits assumed, form in doubt): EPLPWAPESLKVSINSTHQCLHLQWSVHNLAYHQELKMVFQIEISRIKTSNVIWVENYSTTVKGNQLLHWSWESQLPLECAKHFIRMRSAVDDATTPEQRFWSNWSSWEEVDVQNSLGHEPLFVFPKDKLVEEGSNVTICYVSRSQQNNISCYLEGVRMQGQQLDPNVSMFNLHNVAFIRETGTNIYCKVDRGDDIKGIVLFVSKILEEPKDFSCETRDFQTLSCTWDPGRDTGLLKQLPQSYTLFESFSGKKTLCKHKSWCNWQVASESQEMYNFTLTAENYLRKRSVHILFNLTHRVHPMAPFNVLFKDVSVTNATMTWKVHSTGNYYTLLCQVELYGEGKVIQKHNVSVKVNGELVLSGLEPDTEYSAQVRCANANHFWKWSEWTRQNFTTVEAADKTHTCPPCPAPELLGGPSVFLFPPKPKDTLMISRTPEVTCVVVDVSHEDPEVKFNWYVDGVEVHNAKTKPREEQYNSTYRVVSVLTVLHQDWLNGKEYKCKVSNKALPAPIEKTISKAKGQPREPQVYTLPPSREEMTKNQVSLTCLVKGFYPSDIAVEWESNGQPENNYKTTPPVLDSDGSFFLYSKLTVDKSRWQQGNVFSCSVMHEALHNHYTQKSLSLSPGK

Chain of Feline_OSMR_hlgG1_Fc (feline) (chain, as listed by the source limits assumed, form in doubt): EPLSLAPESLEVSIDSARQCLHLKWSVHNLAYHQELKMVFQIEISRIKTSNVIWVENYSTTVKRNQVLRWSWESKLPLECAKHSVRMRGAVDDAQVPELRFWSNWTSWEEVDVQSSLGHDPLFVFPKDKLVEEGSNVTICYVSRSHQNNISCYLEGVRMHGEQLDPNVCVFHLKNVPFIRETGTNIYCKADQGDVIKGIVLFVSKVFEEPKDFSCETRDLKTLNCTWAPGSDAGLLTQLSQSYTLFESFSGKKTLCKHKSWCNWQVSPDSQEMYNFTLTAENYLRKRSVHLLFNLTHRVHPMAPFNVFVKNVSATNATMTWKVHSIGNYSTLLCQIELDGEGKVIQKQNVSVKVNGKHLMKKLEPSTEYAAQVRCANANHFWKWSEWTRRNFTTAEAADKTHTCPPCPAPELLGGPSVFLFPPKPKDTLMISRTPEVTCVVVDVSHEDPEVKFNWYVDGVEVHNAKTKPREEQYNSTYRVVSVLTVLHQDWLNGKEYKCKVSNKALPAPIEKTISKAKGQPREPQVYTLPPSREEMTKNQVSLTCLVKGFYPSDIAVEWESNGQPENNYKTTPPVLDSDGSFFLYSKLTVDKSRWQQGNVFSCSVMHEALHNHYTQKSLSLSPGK

B3: Mu_19F07_VH (SEQ ID NO: 47)_F104A (antibody, V domains shown)
VH: EVKLVESEGGLVQPGSSMKLSCTASGFTFSDYYMAWVRQVPEKGLEWVANINYDGSSTYYLDSLKSRFIISRDNAKNILYLQMSSLKSEDTATYYCARGLTWDADVWGTGTTVTVSS
VL: DIVMTQSHKFMSPSVGDRVSITCKASQDVDTAVAWYQQKPGQSPKLLIYLASTRHTGVPDRFTGSGSGTDFTLTISNVQSEDLADYFCQQYSRFPLTFGAGTKLELKR
kon [1]: 144000 M⁻¹ s⁻¹
ELISA ratio [2]: 0.982 OD ratio

B11: Mu_02D09_VL (SEQ ID NO: 33)_Q27A (antibody, V domains shown)
VH: EVQLVESGGGLVKPGGSLTLSCAASGFTFSDYGMHWLRQAPEKGLEWVAYISSGSRAVFFADTVKGRFTISRDNAKNTLFLQMTSLRSDDTAMYYCARDRYDGRGFAYWGQGTLVTVSA
VL: DIVLTQSPATLSVTPGDSVSLSCRASASISNNLHWYQQTSHESPRLLITYASQSISGIPSRFSGSGSGTDFTLSINSVETEDFGMYFCQQSNSWPLTFGAGTKLELKR
Kd [3]: 35 nM
koff [3]: 0.00441 s⁻¹
kon [3]: 126000 M⁻¹ s⁻¹
Kd [1]: 7.57 nM
koff [1]: 0.00109 s⁻¹
kon [1]: 144000 M⁻¹ s⁻¹
ELISA ratio [2]: 0.025 OD ratio

B12: Mu_02D09_VL (SEQ ID NO: 33)_S56A (antibody, V domains shown)
VH: B11 VH
VL: B11 VL with A27Q, S56A
Kd [3]: 159 nM
koff [3]: 0.00653 s⁻¹
kon [3]: 41200 M⁻¹ s⁻¹
Kd [1]: 9.3 nM
koff [1]: 0.00107 s⁻¹
kon [1]: 116000 M⁻¹ s⁻¹
ELISA ratio [2]: 0 OD ratio

B13: Mu_02D09_VL (SEQ ID NO: 33)_I29A (antibody, V domains shown)
VH: B11 VH
VL: B11 VL with A27Q, I29A
Kd [1]: 7.26 nM
koff [1]: 0.00113 s⁻¹
kon [1]: 155000 M⁻¹ s⁻¹
ELISA ratio [2]: 0.377 OD ratio

B15: Mu_02D09_VH (SEQ ID NO: 31)_Y32A (antibody, V domains shown)
VH: B11 VH with Y32A
VL: B11 VL with A27Q
Kd [3]: 34.8 nM
koff [3]: 0.0246 s⁻¹
kon [3]: 707000 M⁻¹ s⁻¹
Kd [1]: 6.39 nM
koff [1]: 0.000765 s⁻¹
kon [1]: 120000 M⁻¹ s⁻¹
ELISA ratio [2]: 0.991 OD ratio

B17: Mu_09E09_VH (SEQ ID NO: 35)_S35A (antibody, V domains shown)
VH: DVKLVESGEGLVKPGGSLKLSCAASGFTFSSYAMAWVRQTPEKRLEWVAYISSGGDYIYYADTVKGRFTISRDNARNTLYLQMSSLKSEDTAMYYCTRDPITGTFAYWGQGTLVTVSA
VL: DLQMTQTTSSLSASLGDRVTISCRASQDINNYLNWYQQKPDGTVKLLIYYTSTLHSGVPSRFSGSGSGTDYSLTISNLEQEDIATYFCQQGNTLPWTFGGGTKLEIKR
Kd [1]: 1.37 nM
koff [1]: 0.00104 s⁻¹
kon [1]: 756000 M⁻¹ s⁻¹
ELISA ratio [2]: 1.05 OD ratio

B18: Mu_09E09_VH (SEQ ID NO: 35)_Y57A (antibody, V domains shown)
VH: B17 VH with A35S, Y57A
VL: B17 VL
Kd [1]: 2.54 nM
koff [1]: 0.0024 s⁻¹
kon [1]: 943000 M⁻¹ s⁻¹
ELISA ratio [2]: 0.052 OD ratio

B19: Mu_09E09_VH (SEQ ID NO: 35)_F105A (antibody, V domains shown)
VH: B17 VH with A35S, F105A
VL: B17 VL
Kd [1]: 2.4 nM
koff [1]: 0.00186 s⁻¹
kon [1]: 772000 M⁻¹ s⁻¹
ELISA ratio [2]: 0.256 OD ratio

B22: Mu_09E09_VL (SEQ ID NO: 37)_G91A (antibody, V domains shown)
VH: B17 VH with A35S
VL: B17 VL with G91A
Kd [1]: 2.21 nM
koff [1]: 0.00203 s⁻¹
kon [1]: 918000 M⁻¹ s⁻¹
ELISA ratio [2]: 0.136 OD ratio

B25: Mu_10F07_VH (SEQ ID NO: 39)_I101A (antibody, V domains shown)
VH: B17 VH with A35S, A49T, I58F, I101A
VL: B17 VL with L2I, N30T, Y71F, N92H, T93M
Kd [1]: 6.88 nM
koff [1]: 0.000701 s⁻¹
kon [1]: 102000 M⁻¹ s⁻¹
ELISA ratio [2]: 0 OD ratio

B26: Mu_09E09_VH (SEQ ID NO: 35)_D99A (antibody, V domains shown)
VH: B17 VH with A35S, D99A
VL: B17 VL
Kd [1]: 1.76 nM
koff [1]: 0.00108 s⁻¹
kon [1]: 612000 M⁻¹ s⁻¹
ELISA ratio [2]: 0.908 OD ratio

B27: Mu_09E09_VH (SEQ ID NO: 35)_T102A (antibody, V domains shown)
VH: B17 VH with A35S, T102A
VL: B17 VL
Kd [1]: 1.94 nM
koff [1]: 0.00187 s⁻¹
kon [1]: 964000 M⁻¹ s⁻¹
ELISA ratio [2]: 0.388 OD ratio

B28: Mu_09E09_VH (SEQ ID NO: 35)_Y50A (antibody, V domains shown)
VH: B17 VH with A35S, Y50A
VL: B17 VL
Kd [1]: 2.85 nM
koff [1]: 0.00177 s⁻¹
kon [1]: 622000 M⁻¹ s⁻¹
ELISA ratio [2]: 0.31 OD ratio

B29: Mu_09E09_VL (SEQ ID NO: 37)_N34A (antibody, V domains shown)
VH: B17 VH with A35S
VL: B17 VL with N34A
Kd [1]: 5.02 nM
koff [1]: 0.00161 s⁻¹
kon [1]: 321000 M⁻¹ s⁻¹
ELISA ratio [2]: 0.023 OD ratio

B30: Mu_10F07_VH (SEQ ID NO: 39)_D99A (antibody, V domains shown)
VH: B17 VH with A35S, A49T, I58F, D99A
VL: B17 VL with L2I, N30T, Y71F, N92H, T93M
Kd [3]: 11.2 nM
koff [3]: 0.000576 s⁻¹
kon [3]: 51600 M⁻¹ s⁻¹
Kd [1]: 3.18 nM
koff [1]: 0.000704 s⁻¹
kon [1]: 221000 M⁻¹ s⁻¹
ELISA ratio [2]: 0.545 OD ratio

More lines, in order of falling Kd [1], values ahead:

Kd [1]: 1.27 nM
koff [1]: 0.000926 s⁻¹
kon [1]: 729000 M⁻¹ s⁻¹
ELISA ratio [2]: 0.946 OD ratio
B23: Mu_09E09_VH (SEQ ID NO: 35)_P100A (antibody, V domains shown)
VH: B17 VH with A35S, P100A
VL: B17 VL

Kd [3]: 3.92 nM
koff [3]: 0.00356 s⁻¹
kon [3]: 908000 M⁻¹ s⁻¹
Kd [1]: 0.767 nM
koff [1]: 0.000872 s⁻¹
kon [1]: 1.14e+06 M⁻¹ s⁻¹
ELISA ratio [2]: 0.159 OD ratio
B9: Mu_02D09_VH (SEQ ID NO: 31)_D31A (antibody, V domains shown)
VH: B11 VH with D31A
VL: B11 VL with A27Q

Kd [1]: 0.632 nM
koff [1]: 0.00158 s⁻¹
kon [1]: 2.51e+06 M⁻¹ s⁻¹
ELISA ratio [2]: 0.092 OD ratio
B24: Mu_09E09_VL (SEQ ID NO: 37)_Y32A (antibody, V domains shown)
VH: B17 VH with A35S
VL: B17 VL with Y32A

Kd [1]: 0.621 nM
koff [1]: 0.00167 s⁻¹
kon [1]: 2.68e+06 M⁻¹ s⁻¹
ELISA ratio [2]: 0.055 OD ratio
B21: Mu_09E09_VL (SEQ ID NO: 37)_L94A (antibody, V domains shown)
VH: B17 VH with A35S
VL: B17 VL with L94A

Kd [1]: 0.449 nM
koff [1]: 5.79e-05 s⁻¹
kon [1]: 129000 M⁻¹ s⁻¹
ELISA ratio [2]: 0 OD ratio
B16: Mu_02D09_VH (SEQ ID NO: 31)_R104A (antibody, V domains shown)
VH: B11 VH with R104A
VL: B11 VL with A27Q

Kd [1]: 0.407 nM
koff [1]: 0.000108 s⁻¹
kon [1]: 266000 M⁻¹ s⁻¹
ELISA ratio [2]: 1.06 OD ratio
B1: Mu_19F07_VH (SEQ ID NO: 47)_Y33A (antibody, V domains shown)
VH: B3 VH with Y33A, A104F
VL: B3 VL

Kd [1]: 0.4 nM
koff [1]: 0.000141 s⁻¹
kon [1]: 351000 M⁻¹ s⁻¹
ELISA ratio [2]: 0.74 OD ratio
B7: Mu_19F07_VH (SEQ ID NO: 47)_Y59A (antibody, V domains shown)
VH: B3 VH with Y59A, A104F
VL: B3 VL

Kd [1]: 0.0511 nM
koff [1]: 2.38e-06 s⁻¹
kon [1]: 46500 M⁻¹ s⁻¹
ELISA ratio [2]: 0.985 OD ratio
B2: Mu_19F07_VL (SEQ ID NO: 49)_Q89A (antibody, V domains shown)
VH: B3 VH with A104F
VL: B3 VL with Q89A

Kd [1]: 0.0143 nM
koff [1]: 5.86e-07 s⁻¹
kon [1]: 41100 M⁻¹ s⁻¹
ELISA ratio [2]: 1.11 OD ratio
B5: Mu_19F07_VL (SEQ ID NO: 49)_L50A (antibody, V domains shown)
VH: B3 VH with A104F
VL: B3 VL with L50A

Kd [1]: 0.00714 nM
koff [1]: 1.73e-06 s⁻¹
kon [1]: 242000 M⁻¹ s⁻¹
ELISA ratio [2]: 0 OD ratio
B20: Mu_10F07_VL (SEQ ID NO: 41)_Y50A (antibody, V domains shown)
VH: B17 VH with A35S, A49T, I58F
VL: B17 VL with L2I, N30T, Y50A, Y71F, N92H, T93M

Kd [1]: 0.00536 nM
koff [1]: 9.05e-07 s⁻¹
kon [1]: 169000 M⁻¹ s⁻¹
ELISA ratio [2]: 0.821 OD ratio
B6: Mu_19F07_VL (SEQ ID NO: 49)_T53A (antibody, V domains shown)
VH: B3 VH with A104F
VL: B3 VL with T53A

Kd [1]: 0.0052 nM
koff [1]: 4.7e-07 s⁻¹
kon [1]: 90400 M⁻¹ s⁻¹
ELISA ratio [2]: 1.09 OD ratio
B4: Mu_19F07_VL (SEQ ID NO: 49)_F94A (antibody, V domains shown)
VH: B3 VH with A104F
VL: B3 VL with F94A

Kd [1]: 0.000765 nM
koff [1]: 7.94e-08 s⁻¹
kon [1]: 104000 M⁻¹ s⁻¹
ELISA ratio [2]: 0 OD ratio
B14: Mu_02D09_VL (SEQ ID NO: 33)_W94A (antibody, V domains shown)
VH: B11 VH
VL: B11 VL with A27Q, W94A

Kd [1]: 0.000648 nM
koff [1]: 2.85e-07 s⁻¹
kon [1]: 440000 M⁻¹ s⁻¹
ELISA ratio [2]: 1.27 OD ratio
B10: Mu_02D09_VL (SEQ ID NO: 33)_L96A (antibody, V domains shown)
VH: B11 VH
VL: B11 VL with A27Q, L96A

Kd [1]: 0.00048 nM
koff [1]: 1.31e-07 s⁻¹
kon [1]: 273000 M⁻¹ s⁻¹
ELISA ratio [2]: 1.08 OD ratio
B8: Mu_19F07_VL (SEQ ID NO: 49)_Q90A (antibody, V domains shown)
VH: B3 VH with A104F
VL: B3 VL with Q90A
